Experimental data published in US20260256927A1 (Merck Sharp & Dohme, published 2026).

Legend:
[1] = target: T1, IL-2Rβ-Fc (Acro Biosystems, catalog #ILB-H5253) (UniProt P14784 27-239, limits assumed); assay: SPR (Biacore T200), kinetic; receptor-Fc captured on anti-Fc CM5 chip, IL-2 variant as analyte
T1 construct: Bought reagent; Captured on an anti-Fc chip as SPR ligand; also called CD122; not shown: Fc part of the bought fusion
T1 sequence (looked up): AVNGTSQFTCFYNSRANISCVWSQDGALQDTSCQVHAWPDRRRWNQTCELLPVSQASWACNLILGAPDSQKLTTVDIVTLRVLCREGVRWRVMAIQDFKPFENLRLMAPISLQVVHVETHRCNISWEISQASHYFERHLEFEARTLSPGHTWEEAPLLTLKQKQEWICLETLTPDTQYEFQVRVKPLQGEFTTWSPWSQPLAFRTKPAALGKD
Procedure: (§1) Anti-Fc polyclonal antibodies were immobilized onto a CM5 chip (GE Life Sciences) using amine coupling chemistry (from Amine Coupling Kit, GE Life Sciences). The immobilization steps were carried out at a flow rate of 25 μL/minute in 1×HBS-EP+ buffer (GE Life Sciences; 10× Stock diluted before use). The sensor surfaces were activated for 7 minutes with a mixture of NHS (0.05 M) and EDC (0.2 M). The anti-Fc antibodies were injected over all four flow cells at a concentration of 25 μg/mL in 10 mM sodium acetate, pH 4.5, for seven minutes. Ethanolamine (1 M, pH 8.5) was injected for seven minutes to block any remaining activated groups.
(§2) Kinetic binding experiments were performed at 25° C. using 1×HBS-EP+ with 0.05% BSA buffer. IL-2Rα-Fc or IL-2Rβ-Fc (Acro Biosystems, catalog #ILA-H5251, ILB-H5253) was injected over the anti-Fc surface at concentrations of 3-10 μg/mL for 12 seconds at a flow rate of 10 μL/minute on flow cells 2, 3 and 4, followed by a buffer wash for 30 seconds at the same flow rate. Kinetic characterization of conjugated or unconjugated aldesleukin or variants was carried out in a range of concentrations from 1 nM-10 μM and one injection of no antigen. After capturing ligand (IL-2Rα-Fc or IL-2Rβ-Fc) on the anti-Fc surface, the analyte (IL-2 variant) was bound for 60 seconds, followed by a 180 second dissociation phase at a flow rate of 50 μL/min. Between each ligand capture and analyte binding cycle, regeneration was carried out using two injections of 10 mM Glycine pH 1.5 for 30 seconds at 30 μL/minute, followed by a 30 second buffer wash step.

[2] = target: T2, IL-2Rα-Fc (Acro Biosystems, catalog #ILA-H5251) (UniProt P01589 22-217, limits assumed); assay: as above
T2 construct: Bought reagent; Captured on an anti-Fc chip as SPR ligand; also called CD25; not shown: Fc part of the bought fusion
T2 sequence (looked up): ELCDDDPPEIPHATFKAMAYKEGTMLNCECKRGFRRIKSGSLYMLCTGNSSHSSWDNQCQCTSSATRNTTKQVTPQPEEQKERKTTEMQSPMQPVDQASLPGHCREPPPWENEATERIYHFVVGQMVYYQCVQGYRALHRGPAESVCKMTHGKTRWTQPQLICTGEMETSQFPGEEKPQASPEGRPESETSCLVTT
Procedure: as §1, §2

[3] = target: T1, IL-2Rβ-Fc (Acro Biosystems, catalog …); assay: SPR, kinetic binding to IL-2 receptor
[4] = target: T2, IL-2Rα-Fc (Acro Biosystems, catalog …); assay: SPR, kinetic binding to IL-2 receptor

B1: Ald-6HIS_S4pAMF (SP9954), unconjugated (ligand)
chain: MPTSFSTKKTQLQLEHLLLDLQMILNGINNYKNPKLTRMLTFKFYMPKKATELKHLQCLEEELKPLEEVLNLAQSKNFHLRPRDLISNINVIVLELKGSETTFMCEYADETATIVEFLNRWITFSQSIISTLTGGSHHHHHH
modifications: X5 = p-azidomethyl-L-phenylalanine (pAMF; S4 in SEQ ID NO: 2/3 numbering)
notes: also called Aldesleukin-6His S4TAG p-azidomethyl-L-phenylalanine
Kd [1]: 300 nM | Kd [2]: 8 nM

B2: Aldesleukin-6His_S4/Y30/K34/Q73 pAMF (SP10686) conjugated to SC547 stump (ligand)
chain: MPTSFSTKKTQLQLEHLLLDLQMILNGINNFKNPFLTRMLTFKFYMPKKATELKHLQCLEEELKPLEEVLNLAFSKNFHLRPRDLISNINVIVLELKGSETTFMCEYADETATIVEFLNRWITFSQSIISTLTGGSHHHHHH
modifications: X5, X31, X35, X74 = pAMF (S4, Y30, K34, Q73), each conjugated to SC547 (conjugation stump)
notes: also called SP10726 stump conjugate
Kd [3]: 600 nM | Kd [4]: 30 nM

B3: Aldesleukin-6His_S4/Y30/K34/V114 pAMF (SP10687) conjugated to SC547 stump (ligand)
chain: MPTSFSTKKTQLQLEHLLLDLQMILNGINNFKNPFLTRMLTFKFYMPKKATELKHLQCLEEELKPLEEVLNLAQSKNFHLRPRDLISNINVIVLELKGSETTFMCEYADETATIFEFLNRWITFSQSIISTLTGGSHHHHHH
modifications: X5, X31, X35, X115 = pAMF (S4, Y30, K34, V114), each conjugated to SC547 (conjugation stump)
notes: also called SP10727 stump conjugate
Kd [3]: 1000 nM | Kd [4]: 100 nM

B4: Ald-6HIS_R80pAMF (SP9968) conjugated to DBCO 2 x 10 kDa PEG (PEG2) (ligand)
chain: MPTSSSTKKTQLQLEHLLLDLQMILNGINNYKNPKLTRMLTFKFYMPKKATELKHLQCLEEELKPLEEVLNLAQSKNFHLFPRDLISNINVIVLELKGSETTFMCEYADETATIVEFLNRWITFSQSIISTLTGGSHHHHHH
modifications: X81 = pAMF (R80) conjugated to branched 20 kDa PEG (DBCO 2 x 10 kDa PEG, PEG2)
notes: also called SP9968 PEG2 conjugated
Kd [2]: 100 nM

B5: Aldesleukin-6His_S4/K34/V114 pAMF (SP10683) conjugated to SC547 stump (ligand)
chain: MPTSFSTKKTQLQLEHLLLDLQMILNGINNYKNPFLTRMLTFKFYMPKKATELKHLQCLEEELKPLEEVLNLAQSKNFHLRPRDLISNINVIVLELKGSETTFMCEYADETATIFEFLNRWITFSQSIISTLTGGSHHHHHH
modifications: X5, X35, X115 = pAMF (S4, K34, V114), each conjugated to SC547 (conjugation stump)
notes: also called SP10723 stump conjugate
Kd [3]: 2000 nM | Kd [4]: 300 nM

B6: Aldesleukin-6His_S4/Y30/K34/R80 pAMF F41K (SP10688) conjugated to SC547 stump (ligand)
chain: MPTSFSTKKTQLQLEHLLLDLQMILNGINNFKNPFLTRMLTKKFYMPKKATELKHLQCLEEELKPLEEVLNLAQSKNFHLFPRDLISNINVIVLELKGSETTFMCEYADETATIVEFLNRWITFSQSIISTLTGGSHHHHHH
modifications: X5, X31, X35, X81 = pAMF (S4, Y30, K34, R80), each conjugated to SC547 (conjugation stump)
notes: also called SP10728 stump conjugate
Kd [3]: 2000 nM

B7: Ald-6HIS_Y30pAMF (SP9957), unconjugated (ligand)
chain: MPTSSSTKKTQLQLEHLLLDLQMILNGINNFKNPKLTRMLTFKFYMPKKATELKHLQCLEEELKPLEEVLNLAQSKNFHLRPRDLISNINVIVLELKGSETTFMCEYADETATIVEFLNRWITFSQSIISTLTGGSHHHHHH
modifications: X31 = pAMF (Y30 in SEQ ID NO: 2/3 numbering)
notes: also called Aldesleukin-6His Y30TAG p-azidomethyl-L-phenylalanine
Kd [1]: 200 nM | Kd [2]: 9 nM

B8: Aldesleukin_S4/Y30/K34 pAMF (SP10480) conjugated to SC547 stump (ligand)
chain: MPTSFSTKKTQLQLEHLLLDLQMILNGINNFKNPFLTRMLTFKFYMPKKATELKHLQCLEEELKPLEEVLNLAQSKNFHLRPRDLISNINVIVLELKGSETTFMCEYADETATIVEFLNRWITFSQSIISTLT
modifications: X5, X31, X35 = pAMF (S4, Y30, K34), each conjugated to SC547 (conjugation stump)
notes: also called SP10504 stump conjugate
Kd [3]: 700 nM

B9: Aldesleukin_S4/K34/V114 pAMF (SP10774) conjugated to SC547 stump (ligand)
chain: MPTSFSTKKTQLQLEHLLLDLQMILNGINNYKNPFLTRMLTFKFYMPKKATELKHLQCLEEELKPLEEVLNLAQSKNFHLRPRDLISNINVIVLELKGSETTFMCEYADETATIFEFLNRWITFSQSIISTLT
modifications: X5, X35, X115 = pAMF (S4, K34, V114), each conjugated to SC547 (conjugation stump)
notes: also called SP10782 stump conjugate
Kd [3]: 500 nM | Kd [4]: 100 nM

B10: Aldesleukin_S4/Y30/K34/Q73 pAMF (SP10776) conjugated to SC547 stump (ligand)
chain: MPTSFSTKKTQLQLEHLLLDLQMILNGINNFKNPFLTRMLTFKFYMPKKATELKHLQCLEEELKPLEEVLNLAFSKNFHLRPRDLISNINVIVLELKGSETTFMCEYADETATIVEFLNRWITFSQSIISTLT
modifications: X5, X31, X35, X74 = pAMF (S4, Y30, K34, Q73), each conjugated to SC547 (conjugation stump)
notes: also called SP10784 stump conjugate
Kd [3]: 300 nM | Kd [4]: 9 nM

B11: Aldesleukin_S4/Y30/K34/V114 pAMF (SP10777) conjugated to SC547 stump (ligand)
chain: MPTSFSTKKTQLQLEHLLLDLQMILNGINNFKNPFLTRMLTFKFYMPKKATELKHLQCLEEELKPLEEVLNLAQSKNFHLRPRDLISNINVIVLELKGSETTFMCEYADETATIFEFLNRWITFSQSIISTLT
modifications: X5, X31, X35, X115 = pAMF (S4, Y30, K34, V114), each conjugated to SC547 (conjugation stump)
notes: also called SP10785 stump conjugate
Kd [3]: 200 nM
